According to PMC8591536, “DNA asymmetry promotes SUMO modification of the single‐stranded DNA‐binding protein RPA” (The EMBO Journal, 2021):

What was measured:
[1] = molecular target: T1, RPA reconstituted with ∆WH-Rfa2: Rfa1(1–621), His6-Rfa2(1–205), Rfa3(1–122) (budding yeast, UniProt P22336 1-621; P26754 1-205; P26755 1-122); assay: fluorescence polarisation; 50 nM 5'-fluorescein-labelled DNA in complex with RPA or RPA∆WH, serially diluted Siz2∆CT; 23°C; 20 mM HEPES pH 7.5, 125 mM NaCl, 0.1% Tween-20; apparent Kd, single-site model with ligand depletion; details: both partners purified
T1 construct: Rfa1 subunit of RPA, budding yeast, residues 1-621, tagless; Rfa2 subunit of RPA, budding yeast, residues 1-205 (winged helix domain removed), noncleavable N-terminal hexahistidine tag; Rfa3 subunit of RPA, budding yeast, residues 1-122, tagless; The purification of this variant is not described on its own; also called RPA∆WH; RPA lacking the WH domain of Rfa2; source: E. coli BL21 (DE3) …

[2] = molecular target: T2, replication protein A (RPA): Rfa1(1–621), His6-Rfa2(1–273), Rfa3(1–122) (budding yeast, UniProt P22336 1-621; P26754 1-273; P26755 1-122); assay: as above; details: both partners purified
T2 construct: Rfa1 subunit of RPA, budding yeast, residues 1-621, tagless; Rfa2 subunit of RPA, budding yeast, residues 1-273, noncleavable N-terminal hexahistidine tag; Rfa3 subunit of RPA, budding yeast, residues 1-122, tagless; also called wild-type RPA; source: E. coli BL21 (DE3) CodonPlus RIL, co-expressed, purified (Ni-NTA, HiTrap Heparin, Superdex200); not shown: His6, N-terminal, kept; copies: + +

[3] = molecular target: T1, RPA reconstituted with ∆WH-Rfa2: …; assay: native gel or EMSA; 10 nM 6-FAM-ds20ss32 DNA pre-bound to RPA, RPA∆WH or SUMO-RPA, serially diluted full-length Siz2; 25 min at 23°C; 20 mM HEPES pH 7.5, 125 mM NaCl, 0.1% Tween-20, 5 mM MgCl2; native 6% polyacrylamide gel in 0.5x TBE; apparent Kd; details: both partners purified
[4] = molecular target: T2, replication protein A (RPA): …; assay: as above; details: both partners purified
Siz2∆CT = molecular target: T3, Siz2∆CT (Saccharomyces cerevisiae? (budding …, UniProt Q12216 1-420)); assay: fluorescence polarization; FP: 20 mM HEPES pH 7.5, 125 mM NaCl, 0.1% Tween-20, 23°C, 50 nM DNA (RPA/SUMO-RPA on ss32: 1 nM DNA, plus 5 mM MgCl2, 1 mM DTT); EMSA: same buffer with 5 mM MgCl2 (Fig 8 also 1 mM DTT), 23°C, 6% gel in 0.5x TBE; details: protein: recombinant; tags: His6-thioredoxin removed with TEV; label: 5' 6-FAM on strand 1; blunt
T3 sequence: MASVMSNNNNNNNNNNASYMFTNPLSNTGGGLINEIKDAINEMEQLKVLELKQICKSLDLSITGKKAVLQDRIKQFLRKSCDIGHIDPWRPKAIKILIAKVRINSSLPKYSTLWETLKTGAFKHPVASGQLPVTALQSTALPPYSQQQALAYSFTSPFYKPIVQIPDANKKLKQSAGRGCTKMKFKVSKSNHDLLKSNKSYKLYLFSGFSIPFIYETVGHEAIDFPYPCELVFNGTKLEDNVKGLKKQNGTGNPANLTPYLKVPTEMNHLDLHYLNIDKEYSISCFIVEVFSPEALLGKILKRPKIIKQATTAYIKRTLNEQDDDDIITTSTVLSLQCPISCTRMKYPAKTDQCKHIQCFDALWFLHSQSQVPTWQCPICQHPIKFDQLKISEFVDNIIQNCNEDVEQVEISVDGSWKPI

RPA (Rfa1/Rfa2/Rfa3) = RPA (Rfa1/Rfa2/Rfa3) (Saccharomyces cerevisiae? (budding …, UniProt P22336;P26754;P26755 1-621;1-273;1-122)); assay: fluorescence polarization; 5 mM MgCl2; FP: 20 mM HEPES pH 7.5, 125 mM NaCl, 0.1% Tween-20, 23°C, 50 nM DNA (RPA/SUMO-RPA on ss32: 1 nM DNA, plus 5 mM MgCl2, 1 mM DTT); EMSA: same buffer with 5 mM MgCl2 (Fig 8 also 1 mM DTT), 23°C, 6% gel in 0.5x TBE; details: protein: recombinant; tags: noncleavable N-terminal His6 on Rfa2; copies: 1;1;1; label: 5' 6-FAM; single strand
Sequence of RPA (Rfa1/Rfa2/Rfa3) (Saccharomyces cerevisiae? (P22336 whole entry, chain 1 of 3): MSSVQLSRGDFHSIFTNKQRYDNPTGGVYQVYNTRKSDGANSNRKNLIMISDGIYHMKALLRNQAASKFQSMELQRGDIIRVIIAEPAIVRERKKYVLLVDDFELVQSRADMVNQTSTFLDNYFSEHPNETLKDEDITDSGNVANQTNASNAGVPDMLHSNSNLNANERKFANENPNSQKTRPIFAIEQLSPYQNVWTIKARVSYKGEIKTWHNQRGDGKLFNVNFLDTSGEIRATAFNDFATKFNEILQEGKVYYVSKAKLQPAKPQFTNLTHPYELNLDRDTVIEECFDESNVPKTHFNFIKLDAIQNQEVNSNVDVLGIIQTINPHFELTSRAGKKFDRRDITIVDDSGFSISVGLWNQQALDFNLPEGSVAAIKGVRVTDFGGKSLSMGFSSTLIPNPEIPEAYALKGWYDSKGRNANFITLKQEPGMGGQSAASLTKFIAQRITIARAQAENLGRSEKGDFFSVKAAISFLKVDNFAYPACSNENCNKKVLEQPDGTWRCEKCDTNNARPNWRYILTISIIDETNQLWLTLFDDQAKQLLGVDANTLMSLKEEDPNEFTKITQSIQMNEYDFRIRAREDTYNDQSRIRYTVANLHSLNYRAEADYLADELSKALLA
Sequence of RPA (Rfa1/Rfa2/Rfa3) (Saccharomyces cerevisiae? (P26754 whole entry, chain 2 of 3): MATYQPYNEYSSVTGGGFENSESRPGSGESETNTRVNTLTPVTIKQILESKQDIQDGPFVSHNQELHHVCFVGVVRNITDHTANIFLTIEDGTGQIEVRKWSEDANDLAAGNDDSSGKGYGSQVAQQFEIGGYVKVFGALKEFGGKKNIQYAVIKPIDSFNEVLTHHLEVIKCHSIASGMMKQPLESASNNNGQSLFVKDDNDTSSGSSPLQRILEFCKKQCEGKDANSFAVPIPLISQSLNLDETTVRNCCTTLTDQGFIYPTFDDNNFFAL
Sequence of RPA (Rfa1/Rfa2/Rfa3) (Saccharomyces cerevisiae? (P26755 whole entry, chain 3 of 3): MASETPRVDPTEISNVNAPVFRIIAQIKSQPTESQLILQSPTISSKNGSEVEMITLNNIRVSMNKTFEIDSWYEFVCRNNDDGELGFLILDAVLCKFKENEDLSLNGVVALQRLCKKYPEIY

T1 sequence (P22336 whole entry, chain 1 of 3, the tested form may be a part): as the sequence (P22336 whole entry, chain 1 of 3) above
T1 sequence (P26754 1-205, chain 2 of 3): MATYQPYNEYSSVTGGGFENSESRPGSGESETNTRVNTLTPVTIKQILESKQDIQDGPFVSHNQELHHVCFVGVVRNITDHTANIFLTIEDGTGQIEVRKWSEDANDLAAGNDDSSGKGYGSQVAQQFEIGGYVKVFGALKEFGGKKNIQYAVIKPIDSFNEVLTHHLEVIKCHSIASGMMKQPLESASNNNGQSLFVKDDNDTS
T1 sequence (P26755 whole entry, chain 3 of 3, the tested form may be a part): as the sequence (P26755 whole entry, chain 3 of 3) above
T2 sequence (P22336 whole entry, chain 1 of 3, the tested form may be a part): as the sequence (P22336 whole entry, chain 1 of 3) above
T2 sequence (P26754 whole entry, chain 2 of 3, the tested form may be a part): as the sequence (P26754 whole entry, chain 2 of 3) above
T2 sequence (P26755 whole entry, chain 3 of 3, the tested form may be a part): as the sequence (P26755 whole entry, chain 3 of 3) above

B1: Siz2(1–420) (domain or fragment, budding yeast, UniProt Q12216 1-420, looked up)
chain: T3 sequence
notes: SUMO E3 ligase Siz2, budding yeast, residues 1-420 (SAP, PINIT and SP-RING domains; C-terminal region removed); also called Siz2∆CT; source: E. coli BL21 (DE3) CodonPlus RIL, purified (Ni-NTA, TEV cleavage, Superdex75); not shown: His6, N-terminal, cleaved; thioredoxin, N-terminal, cleaved
B1: binds [1]; binds [2].

B2: Siz2(1–726) (enzyme, budding yeast, UniProt Q12216 1-726, looked up)
chain: MASVMSNNNNNNNNNNASYMFTNPLSNTGGGLINEIKDAINEMEQLKVLELKQICKSLDLSITGKKAVLQDRIKQFLRKSCDIGHIDPWRPKAIKILIAKVRINSSLPKYSTLWETLKTGAFKHPVASGQLPVTALQSTALPPYSQQQALAYSFTSPFYKPIVQIPDANKKLKQSAGRGCTKMKFKVSKSNHDLLKSNKSYKLYLFSGFSIPFIYETVGHEAIDFPYPCELVFNGTKLEDNVKGLKKQNGTGNPANLTPYLKVPTEMNHLDLHYLNIDKEYSISCFIVEVFSPEALLGKILKRPKIIKQATTAYIKRTLNEQDDDDIITTSTVLSLQCPISCTRMKYPAKTDQCKHIQCFDALWFLHSQSQVPTWQCPICQHPIKFDQLKISEFVDNIIQNCNEDVEQVEISVDGSWKPIHNSSAVITDTVNQNHSVKNENQGTVKQEQDYDSRNAFDTNLRNGSNHNEPEIISLDSSDDEAFIPASKSFPTHVNPRNDQLRADIFPSESEGSSDYNPNHTSTPKGSPTMDQDNYQDAFQMRSFLNQGATTNINDTPTNNSSINSFVTATNGDSRIFYNRGPSTPLLPAVLQNLTNQTEAQRNPYGPNYNTTAQDRNLLGIEGDLPPIPPVDPNSEAETELPTRTTSAAHLPPYIHVSTSGHGDDGKIRKRRHSNVSIYIPKNPYATLMKRRPQANHAIMNKTLAQTNDFNTSAQDNSEVVDLTSD
notes: SUMO E3 ligase Siz2, budding yeast, full length; cloned as Siz2(1–726), called Siz2(1–727) in the purification paragraph; also called full-length Siz2; Siz2(1–727); source: E. coli BL21 (DE3) CodonPlus RIL, purified (Ni-NTA, HiTrap Heparin, Ulp1 cleavage, Ni-NTA, Superdex200)
B2: binds [3]; binds [4].

B3: 6-FAM-ds20 (dsDNA)
DNA 1: GCTGTAGCTAGTTTTGCTTC
DNA 2: GAAGCAAAACTAGCTACAGC
B3: binds (Siz2∆CT).

With TTTTTTTTTTTTTTTTTTTTTTTTTTTTTTTT (ssDNA) [6-FAM-ss32 (32dT)] the Kd (RPA (Rfa1/Rfa2/Rfa3)) was less than 1 nM.
